B1: Azoarcus group I ribozyme (parent)
chain: GUGCCUUGCGCCGGGAAACCACGCAAGGGAUGGUGUCAAAUUCGGCGAAACCUAAGCGCCCGCCCGGGCGUAUGGCAACGCCGAGCCAAGCUUCGGCGCCUGCGCCGAUGAAGGUGUAGAGACUAGACGGCACCCACCUAAGGCAAACGCUAUGGUGAAGGCAUAGUCCAGGGAGUGGCGAAAGUCACACAAACCGG

Variants of: B1
Assay: reverse-splicing fitness (ratio to wild type); higher = more active; in vitro selection; Mg2+ level not given
Outline: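 An in vitro group I ribozyme library with randomized positions was T7-transcribed and gel-purified. In triplicate, 10 pmol RNA in EPPS pH 7.5 was reacted with 50 pmoles of a 30-nt RNA substrate for 1 h at 37 °C across several added MgCl2 levels (1–48 mM), then stopped with EDTA. Products were reverse transcribed from a substrate-complementary primer, PCR-amplified and sequenced (HiSeq 4000). Fitness is a variant's read proportion after selection over that before, normalised to wild type.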

Variant	reverse-splicing fitness
C82A A111G A145U C150G U176G	0.0047
C82A A111G A145U C150G U176A	0.00973
C82A A111G A145U C150G U176C	0.0181
C82A A111G A145U U176C	0.249
C82A A111G A145U U176G	0.0692
C82A A111G A145U U176A	0.179
C82A A111G A145U C150G C169U U176C	0.0117
C82A A111G A145U C150G C169U U176A	0.00709
C82A A111G A145U C150G C169U U176G	0.00668
C82A A111G A145G U176C	0.245
C82A A111G A145G U176A	0.184
C82A A111G A145G U176G	0.0444
C82A A111U A120C A145C C150A C169G U176A	0.0385
C82A A111U A120C A145C C150A C169G U176G	0.0101
C82A A111U A120C A145C C150A C169G U176C	0.0348
C82A A111U A120C A145G C169G U176C	0.0355
C82A A111U A120C A145G C169G U176A	0.0259
C82A A111U A120C A145G C169G U176G	0.00647
C82A A111U A120C A145G C150G C169G U176G	0.00673
C82A A111U A120C A145G C150G C169G U176A	0.0112
C82A A111U A120C A145G C150G C169G U176C	0.0155
C82A A111G C150G C169U U176A	0.00656
C82A A111G C150G C169U U176C	0.0125
C82A A111G C150G C169U U176G	0.00537

Variant	reverse-splicing fitness
C82A A111G C150U U176A	0.0842
C82A A111G C150U U176G	0.0264
C82A A111G C150U U176C	0.127
C82A A111U A120C A145C C150A U176A	0.0115
C82A A111U A120C A145C C150A U176C	0.0167
C82A A111U A120C A145C C150A U176G	0.00578
C82A A111G A145U C169A U176A	0.0131
C82A A111G A145U C169A U176G	0.00504
C82A A111G A145U C169A U176C	0.0104
C82A A111G A145U C150U C169U	0.0118
C82A A111G A145U C150U C169A	0.00951
C82A A111G A145U C150U C169G	0.00926
C82A A111U A120C A145G C150G U176A	0.00848
C82A A111U A120C A145G C150G U176C	0.0126
C82A A111U A120C A145G C150G U176G	0.00733
C82A A111U A120C A145G C150U C169U U176C	0.0148
C82A A111U A120C A145G C150U C169U U176A	0.0152
C82A A111U A120C A145G C150U C169U U176G	0.00781
C82A A111U A120C A145G C150A C169G U176C	0.0343
C82A A111U A120C A145G C150A C169G U176A	0.0204
C82A A111U A120C A145G C150A C169G U176G	0.00858
C82A A111G A145U C150A U176G	0.0106
C82A A111G A145U C150A U176C	0.03
C82A A111G A145U C150A U176A	0.0241

Variant	reverse-splicing fitness
C82A A111U A120C A145U C150A U176A	0.0108
C82A A111U A120C A145U C150A U176C	0.0223
C82A A111U A120C A145U C150A U176G	0.00762
C82A A111U A120C A145C C150G C169U	0.00963
C82A A111U A120C A145C C150G C169G	0.00743
C82A A111U A120C A145C C150G C169A	0.00897
C82A A111U A120C A145G C150U C169A U176C	0.018
C82A A111U A120C A145G C150U C169A U176A	0.0182
C82A A111U A120C A145G C150U C169A U176G	0.00943
C82A A111U A120C A145C C150U C169U U176G	0.00618
C82A A111U A120C A145C C150U C169U U176A	0.0144
C82A A111U A120C A145C C150U C169U U176C	0.0133
C82A A111G C169U U176G	0.00547
C82A A111G C169U U176C	0.0142
C82A A111G C169U U176A	0.0153
C82A A111U A120C A145G C169U U176A	0.0178
C82A A111U A120C A145G C169U U176G	0.00584
C82A A111U A120C A145G C169U U176C	0.0156
C82A A111G C150A C169U	0.0114
C82A A111G C150A C169A	0.0109
C82A A111G C150A C169G	0.00926
C82A A111G A145U C150U C169U U176A	0.014
C82A A111G A145U C150U C169U U176G	0.00658
C82A A111G A145U C150U C169U U176C	0.0116

Variant	reverse-splicing fitness
C82A A111U A120C A145G C150A C169A U176C	0.0279
C82A A111U A120C A145G C150A C169A U176G	0.0115
C82A A111U A120C A145G C150A C169A U176A	0.0221
C82A A111G A145U C169G U176C	0.0131
C82A A111G A145U C169G U176G	0.00511
C82A A111G A145U C169G U176A	0.011
C82A A111U A120C A145C C150U C169G U176A	0.0356
C82A A111U A120C A145C C150U C169G U176G	0.00842
C82A A111U A120C A145C C150U C169G U176C	0.0353
C82A A111U A120C A145C C150U C169A U176C	0.0162
C82A A111U A120C A145C C150U C169A U176G	0.00873
C82A A111U A120C A145C C150U C169A U176A	0.0182
C82A A111U A120C A145C C150A C169U U176G	0.00621
C82A A111U A120C A145C C150A C169U U176A	0.0157
C82A A111U A120C A145C C150A C169U U176C	0.0124
C82A A111U A120C A145G C150U C169G U176G	0.00639
C82A A111U A120C A145G C150U C169G U176A	0.0138
C82A A111U A120C A145G C150U C169G U176C	0.0201
C82A A111G A145U	0.431
C82A A111G C150G U176G	0.004
C82A A111G C150G U176A	0.00793
C82A A111G C150G U176C	0.0152
C82A A111U A120C A145U C150U C169A U176A	0.0216
C82A A111U A120C A145U C150U C169A U176C	0.0168

Variant	reverse-splicing fitness
C82A A111G C169A U176C	0.019
C82A A111G C169A U176A	0.0155
C82A A111G C169A U176G	0.00616
C82A A111G C150U C169U U176G	0.00623
C82A A111G C150U C169U U176A	0.0148
C82A A111G C150U C169U U176C	0.0136
C82A A111U A120C A145C C150G C169U U176C	0.0102
C82A A111U A120C A145C C150G C169U U176A	0.00683
C82A A111U A120C A145C C150G C169U U176G	0.00543
C82A A111G C169G U176G	0.00548
C82A A111G C169G U176C	0.0207
C82A A111G C169G U176A	0.0181
C82A A111U A120C A145U C150U C169A	0.0111
C82A A111U A120C A145U C150G C169G	0.00869
C82A A111U A120C A145U C150G C169A	0.00962
C82A A111U A120C A145U C150G C169U	0.01
C82A A111G A145G C150G C169U	0.00932
C82A A111U A120C A145C C169G	0.01
C82A A111U A120C A145C C169A	0.0103
C82A A111U A120C A145C C169U	0.0112
C82A A111U A120C A145C C169A U176C	0.0175
C82A A111U A120C A145C C169A U176G	0.00573
C82A A111U A120C A145C C169A U176A	0.0167
C82A A111G C150A C169A U176G	0.0074

Variant	reverse-splicing fitness
C82A A111G C150A C169A U176A	0.0203
C82A A111G C150A C169A U176C	0.0218
C82A A111G A145U C150U C169G U176G	0.00627
C82A A111G A145U C150U C169G U176C	0.015
C82A A111G A145U C150U C169G U176A	0.0131
C82A A111U A120C A145U C150G	0.00883
C82A A111U A120C A145U C150U	0.0216
C82A A111U A120C A145U C150A	0.0107
C82A A111G C150G C169A	0.0102
C82A A111G C150G C169G	0.00678
C82A A111G C150G C169U	0.0107
C82A A111U A120C A145G C150G C169U U176A	0.0146
C82A A111U A120C A145G C150G C169U U176G	0.00787
C82A A111U A120C A145G C150G C169U U176C	0.0129
C82A A111G A145U C150U C169A U176A	0.0133
C82A A111G A145U C150U C169A U176C	0.0114
C82A A111G A145U C150U C169A U176G	0.00665
C82A A111G A145U C150G C169G U176A	0.00771
C82A A111G A145U C150G C169G U176G	0.00584
C82A A111G A145U C150G C169G U176C	0.00567
C82A A111U A120C A145U C150G C169A U176G	0.00766
C82A A111U A120C A145U C150G C169A U176A	0.0117
C82A A111U A120C A145U C150G C169A U176C	0.0116
C82A A111G A145G C150G U176G	0.00721

Variant	reverse-splicing fitness
C82A A111G A145G C150G U176A	0.00955
C82A A111G A145G C150G U176C	0.0188
C82A A111U A120C A145G C150G	0.0101
C82A A111U A120C A145G C150A	0.013
C82A A111U A120C A145G C150U	0.0255
C82A A111G C150U	0.205
C82A A111G C150G	0.024
C82A A111G C150A	0.0352
C82A A111U A120C A145G C169G	0.0103
C82A A111U A120C A145G C169U	0.0142
C82A A111U A120C A145G C169A	0.0113
C82A A111U A120C A145G C150A C169G	0.00972
C82A A111U A120C A145G C150A C169A	0.0122
C82A A111U A120C A145G C150A C169U	0.0104
C82A A111G A145U C150A C169U U176A	0.0132
C82A A111G A145U C150A C169U U176G	0.00627
C82A A111G A145U C150A C169U U176C	0.0109
C82A A111U A120C A145G C150U U176G	0.00822
C82A A111U A120C A145G C150U U176C	0.0246
C82A A111U A120C A145G C150U U176A	0.0126
C82A A111G A145U C150A C169U	0.0106
C82A A111G A145U C150A C169A	0.0101
C82A A111G A145U C150A C169G	0.00826

— the RNAGym collection of RNA variant scans (doi:10.1093/molbev/msab373)
